Reference: patent US20220324971A1 (AKESO BIOPHARMA, published 2022)
Each block holds one binder with its values, some of them ahead of it.

Assays:
[1] = target: T1, CD47 on the cell membrane surface of human cells (normal human RBCs, Raji, LOVO) (human, UniProt Q08722 19-323); test: flow cytometry competition vs SIRPα-ECD-mFc 20 nM on Raji cells
T1 construct: whole, on cells; also called CD47 on the cell membrane surface of normal human RBCs; CD47 on the cell membrane surface of Raji cells
Procedure: Raji cells in the log phase were routinely collected, centrifuged and washed. The cell pellets were resuspended in 1% PBSA and counted, and the viability was determined. The cell concentration was adjusted with 1% PBSA into a suitable range, and the cells were transferred in groups into 1.5 mL tubes at 500 μL per tube, for a total of 0.3 million cells. The cells were centrifuged at 5600 rpm for 5 min, and the supernatant was discarded. The antibody serially diluted was added (final concentrations in descending order: 1, 0.3, 0.1, 0.01, 0.001, 0.0001 nM), and a blank control (100 μL of 1% PBSA+ cells) and an isotype control (human hIgG) were set up, followed by incubation on ice for 30 min. […] 1% PBSA was added, followed by centrifugation at 5600 rpm for 5 min, and the supernatant was discarded. 100 μL of FITC goat anti-mouse IgG (1:500 dilution) was added to each tube, followed by incubation on ice for 40 min in the dark. 500 μL of 1% PBSA was added, followed by centrifugation at 5600 rpm for 5 min, and the supernatant was discarded. 200 μL of 1% PBSA was added to resuspend the cell pellets. Fluorescence signals were detected with FITC channel on a flow cytometer.

[2] = target: T1, CD47 on the cell membrane surface of …; test: flow cytometry on human RBCs
Procedure: Fresh blood was mixed well with blood buffer (blood dilution ratio of 1:3 after concentration). […] The tubes were each centrifuged at 1550 rpm for 30 min after balancing. The PBMCs in the middle buffy coat layer were pipetted. The blood buffer was added in a volume ratio of cells to blood buffer of 1:4. The resulting mixture was well mixed and centrifuged at 950 rpm for 15 min, and the supernatant was discarded. 20 mL of the blood buffer was added to resuspend PBMCs. The resulting suspension was centrifuged, and the supernatant was discarded. Centrifugation was performed, followed by two washings. […] Centrifugation was performed and the supernatant was discarded. […] 500 μL of 1% PBSA was added to each tube, followed by centrifugation at 5600 rpm for 5 min. The supernatant was discarded. 100 μL of the antibody with a corresponding concentration was added (final concentrations: 300, 100, 10, 1, 0.1, 0.01, 0.001 nM) to each tube, and a Blank (PBSA+ cells) and an isotype control were designed, followed by incubation on ice for 1 h. […] 200 μL of 1% washing buffer was added to each tube to resuspend the cells, and fluorescence signals were detected with FITC channel on a flow cytometer. The results were analyzed using Flowing software, and curve fittings were performed separately using MFI and sample concentration on GraphPad prism 5 to calculate EC50.

[3] = target: T1, CD47 on the cell membrane surface of …; test: flow cytometry on LOVO cells
Procedure: The cell pellets were resuspended in 500 μL of 1% PBSA and counted, and the viability was determined. The cells were transferred to 1.5 mL tubes according to 3.0×10⁵ cells/500 μL/tube, and centrifuged at 5600 rpm for 5 min, and the supernatant was discarded. […] Then 500 μL of 1% PBSA was added, followed by centrifugation at 5600 rpm for 5 min, and the supernatant was discarded. 100 μL of FITC goat anti-human IgG (1:500) was added to each tube, and the mixtures were well mixed and incubated on ice for 30 min in the dark. 500 μL of 1% PBSA was added, followed by centrifugation at 5600 rpm for 5 min, and the supernatant was discarded. 200 μL of 1% PBSA was added to each tube to resuspend the cells, and the suspensions were transferred to flow cytometry tubes and detected by a flow cytometer BD FACSCalibur. The results were analyzed using Flowing software, and curve fittings were performed separately using MFI and sample concentration on GraphPad prism 5 to calculate EC50.

human CD47 IgV TEV-His [4] = target: T2, human CD47 IgV TEV-His (human, UniProt Q08722 19-141); test: competitive ELISA vs SIRPα ECD-hFc-Biotin 0.1 ug/mL on coated CD47 IgV TEV-His (blocking EC50)
T2 construct: range 19-141; Recombinant fusion protein synthesized by Akeso; residue numbers count on NP_942088.1; not shown: his tag

human CD47 IgV TEV-His [5] = target: T2, human CD47 IgV TEV-His; test: Biacore SPR, CD47 IgV-TEV-His amine-coupled to chip, antibody 0.78-12.5 nM, 1:1 model
Procedure: The buffer solution was PBST. […] The antibody and human CD47 were subjected to dissociation for 300 s. The chip was regenerated with 3 M MgCl₂ for 30 s at a flow rate of 30 μL/min. The data were analyzed by 1:1 model fitting to obtain affinity constants. Data were acquired using Biacore Control 2.0 software and analyzed using Biacore T200 Evaluation 2.0 software.

[6] = target: T1, CD47 on the cell membrane surface of …; test: flow cytometry competition vs SIRPα-ECD-mFc on LOVO cells
[7] = target: T1, CD47 on the cell membrane surface of …; test: flow cytometry on Raji cells
[8] = target: T1, CD47 on the cell membrane surface of …; test: flow cytometry on Raji cells; remark: listed apart in the source
Procedure: Raji cells in the log phase were collected, centrifuged, and washed. The cell pellets were resuspended in 1% PBSA and counted, and the viability was determined. The cells were transferred to 1.5 mL tubes according to 3.0×10⁵ cells/500 μL/tube, and centrifuged at 5600 rpm for 5 min, and the supernatant was discarded. 100 μL of the corresponding antibody serially diluted was added to each tube according to the experimental design, and a blank group (PBSA+ cells) and an isotype control (hIgG) group were designed, followed by incubation on ice for 1 h. Then 1% PBSA was added, followed by centrifugation at 5600 rpm for 5 min, and the supernatant was discarded. 100 μL of FITC goat anti-human IgG (1:500) was added to each tube, and the mixtures were well mixed and incubated on ice for 30 min in the dark. 500 μL of 1% PBSA was added, followed by centrifugation at 5600 rpm for 5 min, and the supernatant was discarded. 1% PBSA was added to each tube to resuspend the cells, and fluorescence signals were detected with FITC channel on a flow cytometer. Curve fittings were performed separately using MFI and sample concentration to calculate EC50.

human CD47 IgV TEV-His [9] = target: T2, human CD47 IgV TEV-His; test: competitive ELISA vs SIRPα ECD-hFc-Biotin 0.1 ug/mL on coated CD47 IgV TEV-His (blocking EC50); remark: listed apart in the source
Procedure: Experimental procedures: A microplate was coated with 2 μg/mL human CD47 IgV TEV-His at 50 μL per well and incubated at 4° C. for 16 h. The microplate was washed once and tapped dry, blocked with 1% BSA (in PBS) at 300 μL per well, incubated at 37° C. for 2 h, and washed three times and tapped dry. […] Two duplicate wells were set for the above concentrations, with a final volume of 50 μL per well, and the plate was incubated for 10 min. […] The microplate was washed three times and tapped dry. 50 μL of SA-HRP (KPL, 14-30-00) working solution was added to each well, and the microplate was incubated at 37° C. for 30 min. The microplate was washed four times and tapped dry. 50 μL of TMB chromogenic solution was added to each well for color developing for 5 min at room temperature in the dark, and then the color development was terminated by adding 50 μL of stop solution to each well. Then the microplate was put into a microplate reader immediately, and the OD value of each well in the microplate was read at 450 nm. The data were analyzed and processed by SoftMax Pro 6.2.1.

[10] = target: T1, CD47 on the cell membrane surface of …; test: flow cytometry competition vs SIRPα-mFc 20 nM on LOVO cells
Procedure: The cell pellets were resuspended in 1% PBSA and counted, and the viability was determined. The cell concentration was adjusted with 1% PBSA into a suitable range, and the cells were transferred in groups into 1.5 mL tubes at 500 μL per tube, for a total of 0.3 million cells. The cells were centrifuged at 5600 rpm for 5 min, and the supernatant was discarded. The antibody serially diluted was added (final concentrations in descending order: 300, 100, 10, 1, 0.3, 0.1, 0.01, 0.001, 0.0001 nM), and a blank control (100 μL of 1% PBSA+ cells) and an isotype control (human hIgG) were set up, followed by incubation on ice for 30 min. […] 1% PBSA was added, followed by centrifugation at 5600 rpm for 5 min, and the supernatant was discarded. 100 μL of FITC goat anti-mouse IgG (1:500 dilution) was added to each tube, followed by incubation on ice for 40 min in the dark. 1% PBSA was added, followed by centrifugation at 5600 rpm for 5 min, and the supernatant was discarded. 200 μL of 1% PBSA was added to resuspend the cell pellets, and the suspensions were transferred to flow cytometry tubes. Fluorescence signals were detected with FITC channel on a flow cytometer. Curve fittings were performed separately using MFI and sample concentration to calculate EC50.

human CD47 IgV TEV-His [11] = target: T2, human CD47 IgV TEV-His; test: indirect ELISA, coated CD47 IgV TEV-His 2 ug/mL
Procedure: Experimental procedures: A microplate was coated with 2 μg/mL human CD47 IgV TEV-His and incubated at 4° C. for 12 h. The antigen-coated microplate was rinsed 3 times with PBS, and then blocked with 1% BSA in PBS for 2 h. The microplate was rinsed 3 times with PBS. The antibody serially diluted with PBST solution was added into the wells of the microplate, the dilution gradients for the antibody detailed in Table 2. The microplate containing the test antibody was incubated at 37° C. for 30 min, and then washed 3 times with PBST. […] The microplate was washed 3 times with PBST. […] Then the microplate was put into a microplate reader immediately, and the OD value of each well in the microplate was read at 450 nm. The data were analyzed by SoftMax Pro 6.2.1.

human CD47 IgV TEV-His [12] = target: T2, human CD47 IgV TEV-His; test: Fortebio BLI, antibody amine-coupled to AR2G sensor, antigen 3.125-100 nM
Source text: The sensor was equilibrated in PBST for 300 s. […] The antigen and the antibody were subjected to dissociation in PBST for 600 s.

EC50 [1]: 17 pM
EC50 [2]: 600 pM
EC50 [3]: 20 pM
EC50 (human CD47 IgV TEV-His [4]): 194 pM
Kd (human CD47 IgV TEV-His [5]): 152 pM
EC50 [6]: 100 pM
EC50 [7]: 320 pM
B1: 6F7 H1L1(hG4) (antibody, human IgG4, kappa)
heavy: not shown
light: NIVMTQSPATMSMSPGERVTLSCRASEIVGTYVSWFQQKPGQAPRLLIYGASNRYTGVPARFSGSGSGTDFTLTISSVQPEDLADYHCGQSYNFPYTFGGGTKLEIKRTVAAPSVFIFPPSDEQLKSGTASVVCLLNNFYPREAKVQWKVDNALQSGNSQESVTEQDSKDSTYSLSSTLTLSKADYEKHKVYACEVTHQGLSSPVTKSFNRGEC
notes: Humanized 6F7

EC50 [8]: 13 pM
EC50 (human CD47 IgV TEV-His [9]): 274 pM
EC50 [10]: 160 pM
EC50 (human CD47 IgV TEV-His [11]): 37 pM
B2: 6F7 H1L1(G1M) (antibody, human IgG1, kappa, L234A L235A)
heavy: not shown
light: NIVMTQSPATMSMSPGERVTLSCRASEIVGTYVSWFQQKPGQAPRLLIYGASNRYTGVPARFSGSGSGTDFTLTISSVQPEDLADYHCGQSYNFPYTFGGGTKLEIKRTVAAPSVFIFPPSDEQLKSGTASVVCLLNNFYPREAKVQWKVDNALQSGNSQESVTEQDSKDSTYSLSSTLTLSKADYEKHKVYACEVTHQGLSSPVTKSFNRGEC
notes: Humanized 6F7; also called 6F7 H1L1(hG1DM)

Kd (human CD47 IgV TEV-His [12]): 652 pM
koff (human CD47 IgV TEV-His [12]): 0.000256 s⁻¹
kon (human CD47 IgV TEV-His [12]): 393000 M⁻¹ s⁻¹
B3: murine antibody 6F7 (antibody, V domains shown)
VH: QVQLQQPGAELVRPGASVKLSCKASGYTFTSYWMNWVKQRPGQGLEWIGMIDPSDSETHNNQMFKDKATLTVDKSSNTAYMHLSSLTSEDSAVYHCARLYRWYFDVWGAGTTVTVSS
VL: NIVMTQSPKSMSMSLGERVTLSCKASEIVGTYVSWFQQKPHQSPKLLIYGASNRYTGVPDRFTGSGSATDFTLTISNVQAEDLADYHCGQSYNFPYTFGGGTKLEIK
notes: Murine hybridoma antibody purified on protein A; also called monoclonal antibody secreted by hybridoma cell line LT012 (CD47-6F7)
